Reference: the nanobody polyreactivity screen of Harvey et al. (2022)

Test: yeast display, Sf9 membrane polyspecificity reagent, FACS + sequencing; frameworks hold sequencing errors
Method in brief: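 Nanobodies from a synthetic yeast display library (Saccharomyces cerevisiae BJ5465), induced 36–48 hours with galactose, were stained 1 hour at 4 °C with 10% biotinylated, detergent-solubilized Sf9 membrane reagent, enriched on streptavidin microbeads, then FACS-sorted. Anti-HA (expression) and streptavidin (reagent binding) fluorescence set low and high (top ~1%) gates. Polyreactivity labels come from the gate of origin. Genes were colony-PCR amplified, MiSeq 2 × 250 sequenced and filtered by CDR length.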
For “QVQVVESGGGLVQAGGSLRLSCAASGSTLSKNAMGWYRQAPGKERELVAAITLRGGSTSFADSVKGRFTISRDNAMNTVYLHMNSLKPEDTAVYYCNAVSKFDYGYWVQGTQVTVSS”, the “polyreactivity (PSR sort gate)” value was “high polyreactivity”. With “QVQLVESGGGLVQAGGSLRLSCAASGSIFATYAMGWYRQAPGKERELGAAISRSGGSTYYADSVKGRFTISRDNAKNTVYLQMNSLKPEDTAVYYCAAVRGYGWWWSRWGSREYWGQGTQVTVSS” the “polyreactivity (PSR sort gate)” value was “high polyreactivity”. With “QVQLVESGGGLVQAGGSLRLSCAASGSTFYSYAMGWYRQAPGKERELVAAISWDGGRTYYADSVKGRFTISRDNAKNTVYLQMNSLKPEDTAVYYCSADYPTYRHYYWGQGTQVTVSS” the “polyreactivity (PSR sort gate)” value was “low polyreactivity”. For “QVQLVESGGGLVQAGGSLRLSCAASGFNFSYYVMGWSRQAPGKERELVAAITKSGGSTYYADSVKGRFTISRDNAKNTVYLQMNSLKPEDTAVYYCAAVRGYRGYDYWGQGTQVTVSS”, the “polyreactivity (PSR sort gate)” value was “high polyreactivity”. In the case of “QVQLVESGGGLVQAGGSLRLSCAASGFIFYRYAMGWYRQAPGKERELVASITRSGGSTYYADSVKGRFTISRDNAKNTVYLQMNCLKPEDTAVYYCAADRYLGTYRYRYDYWGQGTQVTVSS”, the “polyreactivity (PSR sort gate)” value was “high polyreactivity”. With “QVQLVESGGGLVQAVGSLRLSCAASGFTFERNAMGWYRQAPGKARELVATINGSSDSTYYADSVKGRFTISRDKAKNTVYLQMNSLKPEDTAVYYCNADSITEGNSRYSHFDYWGQGTQVTVSS” the “polyreactivity (PSR sort gate)” value was “low polyreactivity”. For “QVQLVESGGGLVQARGSLRLSCAASGFILTYYAMGRYRQAPGKEMELVATISSGGGSTYYADSVKGRFTISRDNAKNTVYLQMNSLKPEDTAVYFCAASRRMTGIRYINRYEYWGQGTQVTVSS”, the “polyreactivity (PSR sort gate)” value was “high polyreactivity”. In the case of “QVQLVESGGRLVQAGGSLRLSCAASGRTFNRNAMVWYRQAPGKERELVAAISRGGGGTYYADSVMGRFTISRDNAKNTVYLQMNSLKPEDTAVYYCNAAPYYVMYLLWSSNTYDYWGQGTQVTVSS”, the “polyreactivity (PSR sort gate)” value was “high polyreactivity”. With “QVQLVESGGGLVQARGSLRLSCSSSGSIFASYAMGWYRRAPGKERELVAAISRRAVLTYYADSVKGSFTISRDNAKNTVYLQMNSLKPEDTAVYYCNARGYSGYQRYGYNYWGQGTQVTVSS” the “polyreactivity (PSR sort gate)” value was “high polyreactivity”. With “QGQLVESGGGLFQAGGSLRLSCAASGRIFRRYAMGWDIQAPGKERELVAAISRGGSTYYADSVKGRFTISRDNAKNTVYLQMNSLKPEDTAVYYCAAYSQSTSFGGYDSWGQGTQVTVSS” the “polyreactivity (PSR sort gate)” value was “high polyreactivity”. In the case of “QVQLVESGGGLVQAGGSLRLSCADSGRIFGYYAMGWYRQAPGKERELVAAITVSDGRTNYADSVKGRFTISRDNAKNTVYLQMNSLKPEDTAVYYCAAVTPFRVLYDYWGQGTQVTVSS”, the “polyreactivity (PSR sort gate)” value was “low polyreactivity”. With “QVQLVESGGGLVQAEGSLRLSCAASGFIFRYNAMGWYRQAPGKERELVAAITSGGSTNYADSVKGRFTISRDNAKNTVYLQMNSLKPEDTAVYYCNKYRPYGRIYHLAYGRDYWGQGTQVTVSS” the “polyreactivity (PSR sort gate)” value was “high polyreactivity”. For “QVQLVESGGGLVQAGGSLRLSCAASGSTFPRNAMGWYRQAPGKERELVAAISSGGSTYYADSVKWRFTISRDNAKNTVYLQMNSLKPEDTAVYYCAARLYWPIIVVDLYGYDYWGQGTQVTVSS”, the “polyreactivity (PSR sort gate)” value was “low polyreactivity”. With “QVQLVESGGGLVQAGGSLRLSCAASGSIFQFNGMGWYRQAPGKERELVASINWSGGSTNYADSVMGRFTISRDNAKNTVYLQMNSLKAEDTAVYYCAVGHRIYRSRYNYWGQGTQVTVSS” the “polyreactivity (PSR sort gate)” value was “low polyreactivity”. In the case of “QVQLVESGGGLVQAGGSLRLSCAASGLTFKYYAMGWYRQAPGKERELVAIISFGGGSTYYADSVKGRFTISRDNAKNTVYLQMNSLKPEDTAVYYCNARLLFKYGYWGQGTQVTVSS”, the “polyreactivity (PSR sort gate)” value was “high polyreactivity”. For “QVKLKESVGGLVQAGGSLRLSCAASGSISATGNMGWYRQAPGEERELVAAINFGSNTYYADSVKGRFTISRDNAKNTVYLQKSGLKPEDTAVYYCAVDGWYVGPYYYWGQGTQVTVSS”, the “polyreactivity (PSR sort gate)” value was “high polyreactivity”. With “QVQLVESGGGLVQAGGSLRLSCAASGRTIRSYAMGWYSPAPGKERELVAAITGSGGRTYYADSVKGRFTISRDNATNTVYLQMNSLKPEDTAVYYCAARLRGSYDYWGQGTQVTVSS” the “polyreactivity (PSR sort gate)” value was “high polyreactivity”. In the case of “QVQLVESGGGLVQAGGSLRLSCAASARTFKPYAMGWYRQAPGKERELVAAISTRGGSTYYADSVKGRFTISRDNAKNTVYLQMNSLKPEDTAVYYCAATQPCRDYDYWGQGTQVTVSS”, the “polyreactivity (PSR sort gate)” value was “low polyreactivity”. With “QVQLVESGGCLVQAGGSLRLSCAASGSIFSGNAMGWYRQAPGKERELVAAISRSGGSKYYADSVKGRFTISRDNAKNTVYLQMNSLKPEDTAVYYFAAYRTHGPPRAIRFDYWGQGTQVTVSS” the “polyreactivity (PSR sort gate)” value was “high polyreactivity”. For “QVQLVESGGGLVQAGGSLRLSCAASGFTFYANAMGWYRQAPGKERELVAAISRGVSTTYADSVKGRFTISRDNAKNTVYLQMNRLKPEDTAVYYCAADGNVIAQGYDYWGQGTQVTVSS”, the “polyreactivity (PSR sort gate)” value was “low polyreactivity”. With “QVQLVESGRGLVQAGGSLRLSCAASGSTFVRNAMGWYRQAPGKERELDAAITSSGGSTYYADSVKGRFTISRDYAKNTVYVQMNRLKPEDTAVYYCGKRRYYRYDYWGLGTQVTVSS” the “polyreactivity (PSR sort gate)” value was “low polyreactivity”. With “QVQLVESGGGLVQAGGSLRLICAASGRTFVYYAMGWYRQAPGKERELVAAITRSGGRTYYEDSVKGSFTISRDNAKNNVYLQMNSLKPEDTAVYYCAARYWDNPFWFDYWGQGTIVTVSS” the “polyreactivity (PSR sort gate)” value was “high polyreactivity”. For “QVQLVESGGGLVQAGGSLRLSCAASGRTFGIYTMGWYRQAPGKERKLVAAISKRGSSTYYADSVKGRFTISRDNAKNTVYLQMNSLKPEDTAVYYCNARSWYIRGSQEYYYWGQGTQVTVSS”, the “polyreactivity (PSR sort gate)” value was “high polyreactivity”. In the case of “QVQLVESGGGLVQAGGSLRLSCAASGYIFVRNAMGWYRQAPGKERELVAAISGSGGSTYYADSVKGRFTISRDNAKNTVYLQMNSLKPVDTAVYYCAADYATVTWRGIAYDYWGQGTQVTVSS”, the “polyreactivity (PSR sort gate)” value was “low polyreactivity”. In the case of “QVQLVESGGGLVQAGGSLRLSCAASGSIFALYAMGWYRQAPGKERELVAAISYRGGRTYYADSVKGRFTISRDNAKNTVYLQMNSLKPEDTAVYFCATDFPGKFDYWGQGTQVTVSS”, the “polyreactivity (PSR sort gate)” value was “low polyreactivity”. For “QVQLVQSGGGLVQAVGSLRLSCAASGRTFPYYTMGWYRQARGKERELVAAINSSGGRTYYADSVKGRFTISRDNAKNTVYLQMNSLKPEDTAVYYCAKRGYYKYDWGQGTQVTVSS”, the “polyreactivity (PSR sort gate)” value was “high polyreactivity”. With “QVQLVESGGGLVQAGGSLRLSCAASGRIYVPNAMGWYRQAPGKERELVAAITSDGRTNDADSVKGRFTISRDNAKNTVYVQMNSLKPEDTAVYYSNAPVVTFGGYQDDVEYGYWGQGTQVTVSS” the “polyreactivity (PSR sort gate)” value was “low polyreactivity”. In the case of “QVQLVESGGGLVQAGGSLRLSGAASGSIFRDNGMGWYRPAPGKERELVAAINSGDSTYYADSVKGRFTISRDNAKNTVYLQLNSLKPEDTAVYYCNADDRRALSQRQYDWYDYWGQGTQVTVSS”, the “polyreactivity (PSR sort gate)” value was “low polyreactivity”. With “QVQLVESGGGLVQAGGSLRLSCAASGRNFLYNAMGWYRQAPGKERELVAVISKRGGRTYYADSVKGRFTISRDNAKNTVYLQMNSLKPEDTAVYYCAAAYVTPPGPLRYNEYYWGQGTQVTVSS” the “polyreactivity (PSR sort gate)” value was “high polyreactivity”. With “QVQLVESGGGLVQAGGSLRLSCAASGFTFPYYAMGWYRQAPGKERELVADITSGGGTNYADSVKGRFTISRDNAKNTVFLQMNSLKPEDTAVYYCAADAYHQGMDYWGQGTQVTVSS” the “polyreactivity (PSR sort gate)” value was “low polyreactivity”. In the case of “QVHLVESGGGLVQAGGSLRLSCAASGRILSLYAMGWYRQAPGKERELVASINWSDGSTYYADSVKGRFTISRDNAKNTVYLQMNSLKPEDTAVYYCNVDVSSYVAGYDYWGQGTQVTVSS”, the “polyreactivity (PSR sort gate)” value was “low polyreactivity”. In the case of “QVQLVESGGGLVQAGGSLRLSCAASGRIFYYYAMGWYRQAPGKERELVAAISSIDGTTYYADSVKGRFTISRDNAKNTVYLQMNSLKPEDTAVYYCAAEDPADQYDYWGQGTQVTVSS”, the “polyreactivity (PSR sort gate)” value was “high polyreactivity”.
